For this assay, the target named is insulin growth factor-1 receptor (IGF1R) (mouse (endogenous in mouse heart)). The assay is described as follows: BLI. (In BLI a coated tip is dipped into the sample, and binding shifts an interference pattern.)

B1: recombinant mouse SIRPα Fc chimera protein (rSIRPα) (Fc fusion)
chain: KELKVTQPEKSVSVAAGDSTVLNCTLTSLLPVGPIRWYRGVGPSRLLIYSFAGEYVPRIRNVSDTTKRNNMDFSIRISNVTPADAGIYYCVKFQKGSSEPDTEIQSGGGTEVYVLAKPSPPEVSGPADRGIPDQKVNFTCKSHGFSPRNITLKWFKDGQELHPLETTVNPSGKNVSYNISSTVRVVLNSMDVNSKVICEVAHITLDRSPLRGIANLSNFIRVSPTVKVTQQSPTSMNQVNLTCRAERFYPEDLQLIWLENGNVSRNDTPKNLTKNTDGTYNYTSLFLVNSSAHREDVVFTCQVKHDQQPAITRNHTVLGFAHSSDQGSMQTFPDNNATHNWN
B1 had a Kd of 147 µM.

A word on the Kd: it is a measure of binding affinity in units of concentration. Low readings indicate a tighter complex, high ones a looser complex.

The values are drawn from PMC10010047.
